Assay results: publication PMC6972956
pIC50: −log10 of the molar value.

What was measured:
[1] = biological target: recombinant integrin αVβ3 stably expressed on K562 cells (UniProt P06756); assay: flow cytometry on cells; displacement of Alexa647-labeled hFN10 from αVβ3-K562 cells by unlabeled hFN10 or Hr10; buffer A (1 mM MgCl2, 1 mM CaCl2), RT
[2] = biological target: recombinant integrin αIIbβ3 stably expressed on K562 cells (UniProt P08514); assay: flow cytometry on cells; mAb PT-25-activated αIIbβ3-K562 cells incubated 30 min at RT with serially diluted unlabeled Hr10, hFN10 or eptifibatide in the presence of 0.5 µM Alexa647-conjugated FB; buffer A

UniProt P06756, sequence (P06756 31-1048, chain 1 of 2): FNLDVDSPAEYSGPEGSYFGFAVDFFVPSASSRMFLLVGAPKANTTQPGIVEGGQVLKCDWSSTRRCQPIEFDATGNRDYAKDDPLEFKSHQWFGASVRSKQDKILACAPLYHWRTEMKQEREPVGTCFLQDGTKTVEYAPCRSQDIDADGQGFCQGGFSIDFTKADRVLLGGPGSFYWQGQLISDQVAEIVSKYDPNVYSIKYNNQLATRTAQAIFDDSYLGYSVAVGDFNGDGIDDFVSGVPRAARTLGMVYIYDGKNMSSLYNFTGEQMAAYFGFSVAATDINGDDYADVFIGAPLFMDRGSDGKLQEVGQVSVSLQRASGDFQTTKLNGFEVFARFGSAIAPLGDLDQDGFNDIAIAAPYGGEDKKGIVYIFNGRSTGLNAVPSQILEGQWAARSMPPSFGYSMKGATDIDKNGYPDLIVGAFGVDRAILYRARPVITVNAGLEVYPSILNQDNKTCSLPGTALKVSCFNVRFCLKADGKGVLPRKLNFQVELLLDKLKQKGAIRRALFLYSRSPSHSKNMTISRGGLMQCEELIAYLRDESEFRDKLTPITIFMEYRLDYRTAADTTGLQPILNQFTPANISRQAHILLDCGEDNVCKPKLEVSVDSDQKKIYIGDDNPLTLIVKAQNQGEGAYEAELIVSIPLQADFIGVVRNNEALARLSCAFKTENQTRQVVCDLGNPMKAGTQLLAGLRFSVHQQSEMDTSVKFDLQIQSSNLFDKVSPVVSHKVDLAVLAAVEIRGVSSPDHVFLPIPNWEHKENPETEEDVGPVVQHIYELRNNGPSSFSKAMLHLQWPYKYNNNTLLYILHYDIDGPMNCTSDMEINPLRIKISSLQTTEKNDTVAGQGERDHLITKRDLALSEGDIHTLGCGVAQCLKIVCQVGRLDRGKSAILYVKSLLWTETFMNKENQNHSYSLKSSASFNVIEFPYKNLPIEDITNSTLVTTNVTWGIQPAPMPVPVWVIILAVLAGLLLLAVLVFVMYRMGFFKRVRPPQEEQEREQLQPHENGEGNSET
UniProt P06756, sequence (P05106 27-788, chain 2 of 2, further chain): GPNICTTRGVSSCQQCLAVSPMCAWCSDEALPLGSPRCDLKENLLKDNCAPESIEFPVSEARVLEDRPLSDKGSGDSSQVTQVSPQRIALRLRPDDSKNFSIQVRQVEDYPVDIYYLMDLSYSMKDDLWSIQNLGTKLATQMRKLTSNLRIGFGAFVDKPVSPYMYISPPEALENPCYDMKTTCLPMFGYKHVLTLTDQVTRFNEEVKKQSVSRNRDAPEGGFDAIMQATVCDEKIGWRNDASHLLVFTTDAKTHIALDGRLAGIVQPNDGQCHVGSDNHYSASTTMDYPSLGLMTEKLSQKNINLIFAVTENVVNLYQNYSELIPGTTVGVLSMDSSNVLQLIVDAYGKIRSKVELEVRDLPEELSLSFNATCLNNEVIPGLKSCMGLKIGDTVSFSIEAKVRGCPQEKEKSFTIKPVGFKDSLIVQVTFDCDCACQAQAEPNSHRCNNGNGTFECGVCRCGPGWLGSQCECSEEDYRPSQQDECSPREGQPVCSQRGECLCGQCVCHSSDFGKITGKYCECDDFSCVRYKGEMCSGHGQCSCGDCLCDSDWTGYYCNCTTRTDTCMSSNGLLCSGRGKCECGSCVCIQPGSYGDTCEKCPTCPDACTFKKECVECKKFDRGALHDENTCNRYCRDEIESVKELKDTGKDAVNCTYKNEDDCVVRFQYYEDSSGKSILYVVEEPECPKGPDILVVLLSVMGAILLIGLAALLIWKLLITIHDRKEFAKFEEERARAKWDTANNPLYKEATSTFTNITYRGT

hFN10 (from UniProt P02751 1539-1631) (designed binder)
pIC50 [1]: 8.44
pIC50 [2]: 6.32

eptifibatide (peptide)
pIC50 [2]: 7.14
